# B1: C1ORF32 ECD-Fc (SEQ ID NO:42): fusion protein of human C1ORF32 ECD fused to mouse immunoglobulin Fc (human-mouse fusion protein) (protein)
# chain: LQVTVPDKKKVAMLFQPTVLRCHFSTSSHQPAVVQWKFKSYCQDRMGESLGMSSTRAQSLSKRNLEWDPYLDCLDSRRTVRVVASKQGSTVTLGDFYRGREITIVHDADLQIGKLMWGDSGLYYCIITTPDDLEGKNEDSVELLVLGRTGLLADLLPSFAVEIMGSENLYFQGSGEPRGPTIKPCPPCKCPAPNLLGGPSVFIFPPKIKDVLMISLSPIVTCVVVDVSEDDPDVQISWFVNNVEVHTAQTQTHREDYNSTLRVVSALPIQHQDWMSGKEFKCKVNNKDLPAPIERTISKPKGSVRAPQVYVLPPPEEEMTKKQVTLTCMVTDFMPEDIYVEWTNNGKTELNYKNTEPVLDSDGSYFMYSKLRVEKKNWVERNSYSCSVVHEGLHNHHTTKSFSRTPGK
# modifications: Fusion protein human C1ORF32-ECD fused to mouse IgG2a Fc
# What was measured:
# Assay type in all cases: in vivo, mouse
# NOD mice = test: Type 1 diabetes incidence in NOD mice (blood glucose monitoring); conditions: for mice that developed T1D: 100 ug/dose
# Protocol: The effect of C1ORF32 ECD-Fc treatment on modulation of disease incidence was tested in NOD mice, which spontaneously develop a T1D disease. In NOD mice, autoreactive CD4+ can be observed within the β-islets as early as 2 weeks of age (Yang et al., Immunity 1996 February; 4(2):189-94), and by 10 weeks of age, when the treatment with C1ORF32 ECD-Fc (SEQ ID NO: 42) began in the present experiments, NOD mice develop peri-insulitis and β-cell loss (Jimeno et al., Immunology and Cell Biology. (2010) 88, 734-745).
# Materials: C1ORF ECD-Fc (SEQ ID NO:42) was used in these studies, as described below. Control Ig was mouse IgG2a from BioXcell (Cat# BE0085). NOD mice were purchased from Jackson labs, and blood glucose was measured via sampling a small drop of blood from the tail vein.
# Methods: Six week old NOD mice were purchased from Jackson labs. At 10 weeks of age, mice were split into groups and treated with either vehicle (PBS) Control Ig or C1ORF ECD-Fc (SEQ ID NO:42) as detailed below. Treatment was given via IP injections 3×/wk/2 wks. Blood glucose levels were monitored weekly from 8 weeks of age until the mice reached […] of age as detailed below. Mice were considered diabetic upon having two consecutive blood glucose readings of >250 mg/dL. Diabetic mice were sacrificed on the day of the second high glucose level reading. Blood glucose levels were obtained from the tail vein, and the level of blood glucose measured via use of a OneTouch. UltraSmart. Blood Glocuse Monitoring System (OneTouch; Johnson & Johnson; New Brunswick, N.J.) in a blinded manner. This study was carried out 3 times; For study 3 proteins were provided coded.
# Treatment groups (n=5 mice/group): 1. Control Ig (mouse IgG2a), 100 ug/dose 2. C1ORF ECD-Fc (SEQ ID NO:42), 100 ug/dose.
# Treatment groups (n=14-15): 1. Control Ig (mouse IgG2a; BioXcell) (100 ug/dose) 2. C1ORF ECD-Fc (SEQ ID NO:42) (100 ug/dose)
# SJL/J mice [1] = test: BBB breakdown and inflammation by fluorescence molecular tomography in adoptive transfer R-EAE; conditions: Day +30, treatment from onset of remission
# Protocol: […] At the time of imaging mice were anesthetized by administration of sodium pentobarbital (50 mg/kg) and then imaged using the FMT 2500 fluorescence molecular tomography in vivo imaging system. The data is presented as pmol of CathepsinB or AngioSense present within the brain (B) or spinal cord (C).
# Commercially available near infrared (NIR) imaging agents were used to perform tomographic imaging (PerkinElmer Inc., Boston, Mass.). […] For the in vivo imaging, mice were injected intravenously with 4 nmol of NIR fluorescent agent 24 hrs prior to imaging, and imaged following the last treatment with Control Ig or C1ORF32 ECD-Fc (SEQ ID NO: 42) (Day +30 post-PLP139-151 blast cell transfer). At the time of imaging, mice were anesthetized by administration of sodium pentobarbital (50 mg/kg) and then imaged using the FMT 2500 fluorescence molecular tomography in vivo imaging system (PerkinElmer Inc., Boston, Mass.). […] Appropriate optical filters allowed the collection of both fluorescence and excitation datasets, and the multiple source-detector fluorescence projections were normalized to the paired collection of laser excitation data. […] The total amount of fluorescence (in pmoles) in different organ sites was automatically calculated relative to internal standards generated with known concentrations of appropriate FR/NIR dyes. […]
# SJL/J mice [2] = test: T cell and Treg counts in spleen and CNS, day 44 of EAE with IL-10 or TGFb blockade (FACS)
# From the text: On day 44 post disease induction, the rest of the mice were sacrificed and spleens and CNS were taken for cell counts and cell population analysis as described below.
# 2. The spleens and CNS were collected.
# 4. Experimental stains (CD45, CD3, CD4, CD25, FoxP3, Nrp-1, and Helios)
# 9. Gating scheme for flow: Singlets (FSC-A vs. FSC-H)->Cells (SSC-A vs. FSC-A)->Live (VID stain negative cells)->CD45hi->CD3/CD4+->CD25/FoxP3+->Helios/Nrp-1
# [3] = combined data from all 3 studies
molecule,measurement,setting,value
B1,mice prevented from developing full blown autoimmune diabetes,"NOD mice; NOD mice, overall statement",77%
same,mice that did not develop T1D,"NOD mice; Study I, n=5, 100 ug/dose IP 3x/wk for 2 wks from 10 wks of age",3 out of 5
same,mice that developed T1D,"NOD mice; Study II, n=6",1 out of 6
same,mice that developed T1D,"NOD mice; Study III, n=14-15, by the age of 24 weeks",3 out of 15
same,mice in which T1D was observed,NOD mice; [3],6 out of 26
same,percent of mice in which T1D was observed,NOD mice; [3],23%
same,monocyte/macrophage activity in the brain and spinal cord (lysosomal CathepsinB activity),SJL/J mice [1],reduced lysosomal CathepsinB activity; however this effect did not reach statistical significance
same,vascular leakage in the brain and spinal cord (AngioSense720 levels),SJL/J mice [1]; significant,decreased vascular leakage
same,NRP+/Helios+ Treg subpopulation in the spleen,SJL/J mice [2]; administered concomitantly with anti-TGFβ,increase
same,Nrp+/HeliosLo Treg subpopulation in the spleen,SJL/J mice [2]; alone or concomitantly with anti-TGFβ,trend of increase
same,T cell counts in the spleen (mainly CD4+),SJL/J mice [2]; day 44,increase
same,effects on CNS and spleen cell counts following concomitant neutralization of IL-10 or TGF-β,SJL/J mice [2]; day 44,not observed
same,"leukocytes and T cell counts in the CNS (CD45+, CD4+, and CD25+/FoxP3+)",SJL/J mice [2]; day 44,pronounced decrease
same,Nrp-/HeliosLo Treg subpopulation in the spleen,SJL/J mice [2]; treatment alone,upregulation

# Reference: patent publication US20170275344A1, “POLYPEPTIDES AND USES THEREOF AS A DRUG FOR TREATMENT OF AUTOIMMUNE DISORDERS” (Compugen Ltd., priority 2014, published 2017)
